The supplement of paper PMC11908140

B1: library; numbered along this chain (parent)
chain: MRKPRAAVGSGHRKQAASQEGRQKHAKNNSQAKPSACDGLARQPEEVVLQASVSSYHLFRDVAEVTAFRGSLLSWYDQEKRDLPWRRRAEDEMDLDRRAYAVWVSEVMLQQTQVATVINYYTGWMQKWPTLQDLASASLEEVNQLWAGLGYYSRGRRLQEGARKVVEELGGHMPRTAETLQQLLPGVGRYTAGAIASIAFGQATGVVDGNVARVLCRVRAIGADPSSTLVSQQLWGLAQQLVDPARPGDFNQAAMELGATVCTPQRPLCSQCPVESLCRARQRVEQEQLLASGSLSGSPDVEECAPNTGQCHLCLPPSEPWDQTLGVVNFPRKASRKPPREESSATCVLEQPGALGAQILLVQRPNSGLLAGLWEFPSVTWEPSEQLQRKALLQELQRWAGPLPATHLRHLGEVVHTFSHIKLTYQVYGLALEGQTPVTTVPPGARWLTQEEFHTAAVSTAMKKVFRVYQGQQPGTCMGSKRSQVSSPCSRKKPRMGQQVLDNFFRSHISTDAHSLNSAAQ

Variants of: B1
Test: 8OG:A repair function score (normalized; synonymous = 0, nonsense = -1) (normalized log-likelihood score); higher = more repair activity (WT-like)
Conditions: with 8OG:A DNA repair reporter (GFP) in HEK-293 MUTYH KO cells
Method in brief: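 After 72 h, viable mCherry+ cells were split into GFP+ (repair) and GFP− bins in three replicates per tile. These cells were MUTYH knockout HEK-293 cells holding lentiviral MUTYH cDNA NNN codon-scan libraries, kept in 10 pg/ml doxycycline and co-transfected with mCherry plus an 8OG:A GFP repair reporter. Sequencing of tile amplicons gave per-tile Rosace fitness scores, normalized into a repair function score anchored on synonymous and nonsense distributions. Synonymous medians were fixed at 0, nonsense at -1, and variants under 300 counts per million at the start were removed.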
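Further: cells sorted at 72 h after reporter transfection.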

Point of comparison: E275Q, “8OG:A repair function score” value 0.0396. Against it:
- E167A — lower, -0.18
- L369R — lower, 0.0308
- R364K — lower, -0.245
- V53Y — lower, -0.0142
- F59P — lower, -0.371
- F59A — lower, -0.359
- Q358T — higher, 0.145
- G429H — lower, -0.299
- D224S — lower, -0.964
- V327G — lower, -0.53
- S515V — lower, 0.00837
- R283N — lower, -0.173
- R154Q — lower, -1.06
- A199C — lower, 0.000923
- S480V — lower, 0.00525
- F250W — lower, -0.258
- F250I — lower, -0.896
- F250V — lower, -0.797
- Q386H — higher, 0.241
- L109K — lower, -0.951
- L109Q — lower, -0.022
- E395F — lower, -0.476
- E395W — lower, -0.193
- E395N — lower, -0.302
- A101Q — lower, -1.09
- A445V — lower, -0.109
- S343E — lower, -0.015
- C269M — lower, -1.18
- C269N — lower, -1.31
- V142Y — lower, -0.971
- V142W — lower, -0.941
- S105H — lower, -0.786
- A203F — lower, -0.255
- T460K — lower, -0.0077
- L392S — lower, -1.04
- A457T — lower, -0.533
- A457Y — lower, -0.48
- V114I — lower, -0.181
- Q288G — lower, -0.0129
- Q288P — lower, -0.036
- F200V — lower, -0.545
- P437R — lower, -0.174
- G479R — lower, -0.0309
- G479I — lower, -0.00859
- Q282W — lower, -0.0465
- V468A — lower, -0.0846
- V468F — lower, -0.0236
- S197P — lower, -1.3
- C489F — lower, -0.0128
- C489T — lower, 0.00493
- R81A — lower, -0.345
- W124A — lower, -0.577
- L139N — higher, 0.213
- N503T — lower, 0.00666
- W75L — lower, -2.04
- M125K — lower, -0.523
- M125N — lower, -0.838
- M125R — lower, -0.877
- Q310W — lower, -0.0199
- H508N — lower, -0.00695
- T406D — higher, 0.483
- G353C — lower, -0.0857
- G353A — lower, 0.00991
- G353R — lower, -0.038
- V117Y — lower, -1.28
- V117S — lower, -0.427
- V117D — lower, -1
- P174W — lower, -1.14
- P174K — lower, -0.797
- S510W — lower, -0.046
- L40R — higher, 0.0698
- S55P — lower, -0.274
- I509H — lower, 0.0112
- M108A — lower, -1.06
- E178K — lower, 0.0383
- E178P — lower, -0.125
- Q351Y — lower, 0.023
- T324W — lower, -0.0525
- L257R — lower, -1.09
- E303Y — lower, -0.231
- G186N — lower, -0.814
- N143V — lower, -0.199
- L396H — lower, -0.886
